Test results published in US6670167B1, “Catalytic domain of the human effector cell cycle checkpoint protein kinase materials and methods for identification of inhibitors thereof” (Agouron Pharmaceuticals, Inc., priority 1999, dated 2003).
Where no end group is shown, it is not given here.

Target: T1, Chk1 kinase (Homo sapiens, UniProt O14757)
T1 construct: 2 (KH289); made in house; host or cells: baculovirus (Bac-to-Bac, pFastBac-Nde) in Hi-5 insect cells
T1 sequence (O14757 1-289): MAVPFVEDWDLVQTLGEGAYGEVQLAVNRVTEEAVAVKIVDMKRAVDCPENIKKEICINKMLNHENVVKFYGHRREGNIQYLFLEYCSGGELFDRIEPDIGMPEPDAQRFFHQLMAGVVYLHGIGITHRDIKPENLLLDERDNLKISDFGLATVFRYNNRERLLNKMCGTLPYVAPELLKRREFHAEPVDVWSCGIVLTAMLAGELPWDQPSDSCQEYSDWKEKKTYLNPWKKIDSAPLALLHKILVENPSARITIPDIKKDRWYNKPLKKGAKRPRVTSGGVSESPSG
Assay: Peptide substrates tested for activity as Chk1 substrates
Assay type: biochemical
Details: Syntide 2 = 100%
Description: The enzymatic activity of a kinase is measured by its ability to catalyze the transfer of a phosphate residue from a nucleoside triphosphate to an amino acid side chain in a selected protein target. The conversion of ATP to ADP generally accompanies the catalytic reaction. Herein, a synthetic substrate peptide, Syntide-2, having amino acid sequence PLARTLSVAGLPGKK (SEQ ID NO. 11) was utilized. The production of ADP from ATP that accompanies phosphoryl transfer to the substrate was coupled to oxidation of NADH using phosphoenolpyruvate (PEP) through the actions of pyruvate kinase (PK) and lactic dehydrogenase (LDH). The oxidation of NADH was monitored by following the decrease of absorbance at 340 nm (e340=6.22 cm−1 mM−1) using a HP8452 spectrophotometer. Typical reaction solutions contained: 4 mM PEP, 0.15 mM NADH, 28 units of LDH/mL, 16 units of PK/mL, 3 mM DTT, 0.125 mM Syntide-2, 0.15 mM ATP and 25 mM MgCl2 in 50 mM TRIS pH 7.5; 400 mM NaCl. Assays were initiated with 10 nM of kinase domain of Chk1, KH289. Ki values were determined by measuring initial enzyme activity in the presence of varying concentrations of inhibitors. The data were analyzed using Enzyme Kinetic and Kaleidagraph software.
The following substrates were tested for peptide content and activity:
As described in detail below, an aspect of the invention involves a nonradioactive ELISA based assay suitable for high throughput screening (HTS). The development of the ELISA based CHK1 kinase HTS assay was first initiated with a monoclonal anti-phosphoserine antibody called Clone PSR-45, supplied by Sigma. New Chk peptide substrates, analogues of Syntide2, were synthesized to validate this assay. Biotin-Syntide-2 (SEQ ID NO. 12), and N-terminus acetylated Syntide-2 (SEQ ID NO. 13) and the expected peptide products after CHK phosphorylation, serine phosphorylated Syntide 2 (SEQ ID NO. 15), and serine phosphorylated biotin-Syntide 2 (SEQ ID NO. 16) were synthesized for assay development. […]

Substance | Activity (peptide substrate)
Ac-PLARTLSVAGLPG-AGAGAGAK (Ac-PLARTLSVAGLPGAGAGAGAK) [Syntide 4, N-terminus acetylated analogue of Syntide 2] | 72%
KAGAG-PLARTLSVAGLPG-Biotin-K [Syntide 3] | 67%
PLARTLSVAGLPGKK [Syntide 2, synthetic substrate peptide, reference compound] | 100%
